Common to all, as to assay: SEC
On the technique in general: In gel filtration, larger molecules generally elute earlier.

Data set [1] has as its target flagellin (FliC) of S. typhimurium SJW1103 (S. typhimurium (endogenous in SJW1103)) (UniProt P06179).
Data set [2] deals with the molecule itself.
Data set [3] deals with the molecule itself. This is another data set of the same source.

These results are taken from PMC2528291 (Journal of molecular biology, 2001).

Like-named read-outs stand apart in the source and are kept apart here.

Usually stoichiometry N stands for a count of units in the complex or per binding partner.

Chain of flagellin (FliC) of S. typhimurium SJW1103 (S. typhimurium (endogenous in SJW1103)) (P06179 whole entry): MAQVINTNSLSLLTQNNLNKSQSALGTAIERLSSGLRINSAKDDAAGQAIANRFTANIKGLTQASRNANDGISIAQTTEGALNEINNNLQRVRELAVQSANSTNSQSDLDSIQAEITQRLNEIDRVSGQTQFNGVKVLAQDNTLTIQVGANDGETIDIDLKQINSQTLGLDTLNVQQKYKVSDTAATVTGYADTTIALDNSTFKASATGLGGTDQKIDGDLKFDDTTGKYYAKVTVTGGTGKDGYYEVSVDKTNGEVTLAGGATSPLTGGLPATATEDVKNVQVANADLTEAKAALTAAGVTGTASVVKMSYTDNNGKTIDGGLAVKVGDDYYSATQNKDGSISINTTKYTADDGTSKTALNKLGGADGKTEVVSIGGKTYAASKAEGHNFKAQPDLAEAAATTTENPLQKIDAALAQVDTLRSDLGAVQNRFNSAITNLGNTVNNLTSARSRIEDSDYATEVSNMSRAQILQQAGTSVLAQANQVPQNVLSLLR

For the molecule “His6-FliS (from pET-FliS) (from UniProt P26609 1-135) (natural protein)”, the stoichiometry N (FliS per FliC) in data set [1] stood at 2.

B1: FliS (native, cytosolic, of S. typhimurium SJW1103) (natural protein, S. typhimurium (endogenous in SJW1103), UniProt P26609 1-135, looked up)
chain: MYTASGIKAYAQVSVESAVMSASPHQLIEMLFDGANSALVRARLFLEQGDVVAKGEALSKAINIIDNGLKAGLDQEKGGEIATNLSELYDYMIRRLLQANLRNDAQAIEEVEGLLSNIAEAWKQISPKASFQESR
On to B1, for which the “stoichiometry N” value in data set [2] worked out at 2.

B2: His6-FliS (from pET-FliS) (natural protein, S. typhimurium, UniProt P26609 1-135, looked up)
chain: B1 chain
modifications: [35S]methionine label (in the affinity blots only)
For the molecule B2, the “stoichiometry N” value in data set [3] stood at 2.
